In article PMC8683085, “Serine ADP-ribosylation marks nucleosomes for ALC1-dependent chromatin remodeling” (eLife, 2021):

Molecular target: unmodified nucleosome (UniProt P68431)

Which ALC1 nucleosome remodeling rate constant (REA assay) does the source give for “ALC1 (full-length, 6xHis-1xFLAG-ALC1) (from UniProt Q86WJ1 1-897) (enzyme)” here?
The ALC1 nucleosome remodeling rate constant (REA assay) was under 0.0003 min⁻¹.
